tested on: c-Src; test: phosphorylation enrichment, bacterial display (enrichment ratio); higher = better substrate or ligand; peptides without Tyr show the background
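Wherever SH2 binding enrichment of the phosphorylated peptide, bacterial display is given: peptide library displayed on the E. coli surface as eCPX fusions, selected cells deep-sequenced, score is each peptide's frequency after selection divided by its frequency in the input.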
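Wherever phosphorylation enrichment, bacterial display is given: 11-residue human phosphosite peptides and single-mutation variants displayed on the E. coli surface, counted by deep sequencing, each peptide's frequency after selection divided by its frequency in the unselected input library; frequency after pTyr selection over input frequency; kinase dosed for 20-30% of maximal phosphorylation in three min.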

Sequence	phosphorylation enrichment
GLALRCLSDHS [VWF_Y1584_Y1584C]	0.503
PVPKTYDMLNA [PKP2_Y108_K112N]	0.83
GLALRYLSDHS [VWF_Y1584]	0.539
KTTSGYAGGLS [KRT8_Y419]	0.369
IGNGYYFHVFS [MYBPC3_Y1136_R1138H]	0.354
VIGRMYDYHVL [RPF2_Y109]	0.643
ELCSEYRKSRK [SPINK5_Y440]	0.375
GVTLLYFGRFN [ADGRD1_Y85_YF]	0.426
EQLLDYTRTVQ [INPP5E_Y439_R435Q]	0.438
SKKSTYQALLD [GANC_Y43]	0.423
KIPGRYYETGS [PAX2_Y72_L69P]	0.476
EASGIYVKSII [PATJ_Y396]	0.458
GGRIDYIAGLV [APRT_Y60_D65V]	0.423
KASVDYIRKLQ [MITF_Y360]	0.345
RQLEIYRASRP [ERCC4_Y594]	0.408
PVLSLYASGRT [ACTA1_Y145_A140P]	0.573
KILGTYYETGS [PAX2_Y72_R71T]	1.29

Sequence	phosphorylation enrichment
RPGSGYTKIMR [PKLR_Y564_N566K]	0.348
FMMMRYSQNIR [SDAD1_Y656_V660I]	0.397
NSFKYYMSDDI [ATRX_Y204_C200S]	0.499
LTMAPYSSVSL [FAM81A_Y24]	0.897
ADEDIYGVLPA [LYNtide_2014]	2.97
SKNFTYIWWLN [PSG4_Y271_YF]	0.402
DGTIVYTGLET [USH2A_Y4487]	1.05
PTQLPYDHKWE [KIT_Y578]	0.618
LQKNIYSEELR [LMNA_Y211_F206L]	0.722
TALFIYIRPKA [OR10C1_Y258]	0.304
GHEYIYVDPMQ [PDGFRA_Y574]	3.65
GRVFVYHLSEQ [ITGAE_Y551_R552H_YF]	0.629
RNLDTYQKRLR [PLA2G2D_Y126]	0.463
KNKELYSDLFD [PDE10A_Y300]	0.6
KKARAYGPGIE [FLNA_Y287]	0.392
EEALYYLTRVE [SET_Y119_H118Y]	4.59

biological target: Grb2 SH2 (UniProt P62993); test: SH2 binding enrichment of the phosphorylated peptide, bacterial display (enrichment ratio); higher = better substrate or ligand; peptides without Tyr show the background

SH2 binding enrichment	Sequence
0.815	GLALRCLSDHS [VWF_Y1584_Y1584C]
0.962	PVPKTYDMLNA [PKP2_Y108_K112N]
0.732	GLALRYLSDHS [VWF_Y1584]
0.927	VIGRMYDYHVL [RPF2_Y109]
1.03	ELCSEYRKSRK [SPINK5_Y440]
0.999	RPGSGYTKIMR [PKLR_Y564_N566K]
1.35	FMMMRYSQNIR [SDAD1_Y656_V660I]
0.646	SKNFTYIWWLN [PSG4_Y271_YF]
0.829	DGTIVYTGLET [USH2A_Y4487]
0.873	GHEYIYVDPMQ [PDGFRA_Y574]
0.918	RNLDTYQKRLR [PLA2G2D_Y126]
1.04	KNKELYSDLFD [PDE10A_Y300]
0.947	EEALYYLTRVE [SET_Y119_H118Y]

Continued, sequence first:

Sequence	SH2 binding enrichment
KTTSGYAGGLS [KRT8_Y419]	1.32
IGNGYYFHVFS [MYBPC3_Y1136_R1138H]	1.05
GVTLLYFGRFN [ADGRD1_Y85_YF]	1.27
EQLLDYTRTVQ [INPP5E_Y439_R435Q]	0.904
SKKSTYQALLD [GANC_Y43]	0.788
KIPGRYYETGS [PAX2_Y72_L69P]	0.97
EASGIYVKSII [PATJ_Y396]	0.994
GGRIDYIAGLV [APRT_Y60_D65V]	0.692
KASVDYIRKLQ [MITF_Y360]	0.838
RQLEIYRASRP [ERCC4_Y594]	0.623
PVLSLYASGRT [ACTA1_Y145_A140P]	0.841
KILGTYYETGS [PAX2_Y72_R71T]	1.02
NSFKYYMSDDI [ATRX_Y204_C200S]	0.943
LTMAPYSSVSL [FAM81A_Y24]	0.691
ADEDIYGVLPA [LYNtide_2014]	1.02
PTQLPYDHKWE [KIT_Y578]	0.923
LQKNIYSEELR [LMNA_Y211_F206L]	0.709
TALFIYIRPKA [OR10C1_Y258]	0.891
GRVFVYHLSEQ [ITGAE_Y551_R552H_YF]	0.769
KKARAYGPGIE [FLNA_Y287]	0.693

biological target: SHP2-C SH2; test: as above

SH2 binding enrichment	Sequence
0.654	GLALRCLSDHS [VWF_Y1584_Y1584C]
0.659	PVPKTYDMLNA [PKP2_Y108_K112N]
0.557	GLALRYLSDHS [VWF_Y1584]
1.71	VIGRMYDYHVL [RPF2_Y109]
0.726	ELCSEYRKSRK [SPINK5_Y440]
1.69	RPGSGYTKIMR [PKLR_Y564_N566K]
1.36	FMMMRYSQNIR [SDAD1_Y656_V660I]
0.513	SKNFTYIWWLN [PSG4_Y271_YF]
2.8	DGTIVYTGLET [USH2A_Y4487]
0.633	GHEYIYVDPMQ [PDGFRA_Y574]
0.504	RNLDTYQKRLR [PLA2G2D_Y126]
0.715	KNKELYSDLFD [PDE10A_Y300]
1.39	EEALYYLTRVE [SET_Y119_H118Y]

Further lines, the sequence ahead of its results:

Sequence	SH2 binding enrichment
KTTSGYAGGLS [KRT8_Y419]	0.617
IGNGYYFHVFS [MYBPC3_Y1136_R1138H]	1.83
GVTLLYFGRFN [ADGRD1_Y85_YF]	1.41
EQLLDYTRTVQ [INPP5E_Y439_R435Q]	0.732
SKKSTYQALLD [GANC_Y43]	0.595
KIPGRYYETGS [PAX2_Y72_L69P]	0.727
EASGIYVKSII [PATJ_Y396]	0.674
GGRIDYIAGLV [APRT_Y60_D65V]	0.582
KASVDYIRKLQ [MITF_Y360]	0.899
RQLEIYRASRP [ERCC4_Y594]	0.49
PVLSLYASGRT [ACTA1_Y145_A140P]	0.926
KILGTYYETGS [PAX2_Y72_R71T]	0.822
NSFKYYMSDDI [ATRX_Y204_C200S]	0.746
LTMAPYSSVSL [FAM81A_Y24]	1.82
ADEDIYGVLPA [LYNtide_2014]	0.794
PTQLPYDHKWE [KIT_Y578]	0.575
LQKNIYSEELR [LMNA_Y211_F206L]	0.7
TALFIYIRPKA [OR10C1_Y258]	0.721
GRVFVYHLSEQ [ITGAE_Y551_R552H_YF]	1.28
KKARAYGPGIE [FLNA_Y287]	0.855

biological target: c-Src SH2; test: as above

SH2 binding enrichment	Sequence
0.41	GLALRCLSDHS [VWF_Y1584_Y1584C]
1.57	PVPKTYDMLNA [PKP2_Y108_K112N]
0.444	GLALRYLSDHS [VWF_Y1584]
1.93	VIGRMYDYHVL [RPF2_Y109]
0.484	ELCSEYRKSRK [SPINK5_Y440]
2.98	RPGSGYTKIMR [PKLR_Y564_N566K]
0.883	FMMMRYSQNIR [SDAD1_Y656_V660I]
0.409	SKNFTYIWWLN [PSG4_Y271_YF]
0.844	DGTIVYTGLET [USH2A_Y4487]
0.749	GHEYIYVDPMQ [PDGFRA_Y574]
0.629	RNLDTYQKRLR [PLA2G2D_Y126]
1.15	KNKELYSDLFD [PDE10A_Y300]
0.669	EEALYYLTRVE [SET_Y119_H118Y]

The next lines start with the sequence.

Sequence	SH2 binding enrichment
KTTSGYAGGLS [KRT8_Y419]	0.431
IGNGYYFHVFS [MYBPC3_Y1136_R1138H]	0.927
GVTLLYFGRFN [ADGRD1_Y85_YF]	0.981
EQLLDYTRTVQ [INPP5E_Y439_R435Q]	0.438
SKKSTYQALLD [GANC_Y43]	0.555
KIPGRYYETGS [PAX2_Y72_L69P]	0.823
EASGIYVKSII [PATJ_Y396]	0.466
GGRIDYIAGLV [APRT_Y60_D65V]	0.382
KASVDYIRKLQ [MITF_Y360]	0.454
RQLEIYRASRP [ERCC4_Y594]	0.402
PVLSLYASGRT [ACTA1_Y145_A140P]	0.484
KILGTYYETGS [PAX2_Y72_R71T]	1.23
NSFKYYMSDDI [ATRX_Y204_C200S]	1.05
LTMAPYSSVSL [FAM81A_Y24]	2.72
ADEDIYGVLPA [LYNtide_2014]	0.401
PTQLPYDHKWE [KIT_Y578]	0.524
LQKNIYSEELR [LMNA_Y211_F206L]	0.582
TALFIYIRPKA [OR10C1_Y258]	0.494
GRVFVYHLSEQ [ITGAE_Y551_R552H_YF]	0.614
KKARAYGPGIE [FLNA_Y287]	0.408

— the supplement of paper PMC10065799, “High-throughput profiling of sequence recognition by tyrosine kinases and SH2 domains using bacterial peptide display” (eLife, 2023)
